This is an account of results in patent US20190062411A1 (AstraZeneca / MedImmune, published 2019).

Assay [1] has as its target T1, MrkA on the surface of live or whole K. pneumoniae bacteria (Klebsiella pneumoniae, UniProt P12267 23-202).
T1 construct: Target of whole-bacteria ELISA, FACS and confocal assays; The strain is named under assay in each row; On bacteria MrkA is assembled into fimbriae (oligomeric); also called K. pneumoniae MrkA; type III fimbriae major subunit MrkA
T1 chain: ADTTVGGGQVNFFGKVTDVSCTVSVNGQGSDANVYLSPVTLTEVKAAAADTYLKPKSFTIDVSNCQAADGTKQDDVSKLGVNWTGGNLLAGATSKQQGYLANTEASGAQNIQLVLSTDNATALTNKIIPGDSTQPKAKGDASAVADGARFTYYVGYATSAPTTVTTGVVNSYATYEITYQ
Briefly: whole cell ELISA on K. pneumoniae strain 29011 (title: Kp29011 ELISA).
Method: Briefly, a single colony of K. pneumoniae was inoculated into 2xYT media until the culture reached log phase. Bacteria were coated onto 384-well plates (Nunc MaxiSorp) overnight at 4° C. […] After blocking with PBS supplemented with 4% BSA (PBS-B), the coated plates were incubated with anti-K. pneumoniae antibodies for 1 h. The plates were then washed with PBS-T (PBS+0.1% Tween 20) before HRP-conjugated secondary antibody was added for 1 h followed by washing and TMB (3, 3′, 5, 5′-Tetrametheylbenzidine) substrate addition. Color development was stopped by adding 0.1 N HCL, and the absorbance at 450 nm was measured by microplate reader (Molecular Devices). The data was plotted with Prism software.

Assay [2] deals with T2, biotinylated recombinant his-tagged MrkA, mixture of monomeric and oligomeric MrkA (Klebsiella pneumoniae, UniProt P12267 23-202, biotin-labeled (Pierce kit; sites not stated)).
T2 construct: also called biotinylated-MrkA; a mixture of monomeric and multimeric MrkA; not shown: his tag
T2 chain: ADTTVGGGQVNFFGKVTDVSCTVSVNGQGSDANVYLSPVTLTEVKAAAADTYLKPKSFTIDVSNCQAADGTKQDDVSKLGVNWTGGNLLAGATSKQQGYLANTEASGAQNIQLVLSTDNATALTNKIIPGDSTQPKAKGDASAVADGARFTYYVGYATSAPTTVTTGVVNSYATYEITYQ
Briefly: BLI (Octet), biotinylated MrkA on streptavidin sensors, IgG in solution, 1:1 fit.

In assay [3] the target is T2, biotinylated recombinant his-tagged …. As to the kind of experiment: ELISA, biotinylated MrkA captured by streptavidin (title: anti-MrkA IgG binding to bio-MrkA).
The target is the same in assay [4]. Briefly: ELISA, MrkA protein coated directly onto the plate, not biotinylated (title: anti-MrkA IgG binding to MrkA).
Assay [5] concerns the target T3, MrkA with a 40 amino acid N-terminal deletion (MrkA-N-dlt) (Klebsiella pneumoniae, UniProt P12267 41-202).
T3 construct: Lysate of E. coli coated on the ELISA plate; not shown: His tag added at the C terminus
T3 chain: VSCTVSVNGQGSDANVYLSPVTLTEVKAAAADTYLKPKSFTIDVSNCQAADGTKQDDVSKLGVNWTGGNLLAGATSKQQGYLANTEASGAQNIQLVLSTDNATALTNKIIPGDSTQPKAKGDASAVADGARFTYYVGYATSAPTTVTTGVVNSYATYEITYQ
Briefly: ELISA on plates coated directly with cleared lysate of E. coli expressing the His-tagged construct; y axis without a label.

The target in assay [6] is T4, MrkA with both the N and C terminal deletions (MrkA-N/C-dlt) (Klebsiella pneumoniae, UniProt P12267 41-170).
T4 construct: Lysate of E. coli coated on the ELISA plate; not shown: His tag added at the C terminus
T4 chain: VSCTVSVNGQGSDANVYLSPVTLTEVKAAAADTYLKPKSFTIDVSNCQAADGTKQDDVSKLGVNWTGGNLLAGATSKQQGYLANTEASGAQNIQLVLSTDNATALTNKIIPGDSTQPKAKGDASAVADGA
Described as above.

The target of assay [7] is T5, monomeric MrkA (purified, BLI) (Klebsiella pneumoniae, UniProt P12267 23-202).
T5 construct: not shown: N terminal 6x his tag from pET28
T5 chain: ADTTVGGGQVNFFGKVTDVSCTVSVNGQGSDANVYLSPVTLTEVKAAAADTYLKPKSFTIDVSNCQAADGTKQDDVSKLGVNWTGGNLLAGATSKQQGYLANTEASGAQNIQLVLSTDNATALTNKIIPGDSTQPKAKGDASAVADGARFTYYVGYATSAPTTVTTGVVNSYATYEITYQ
Briefly: BLI (Octet), Fab against monomeric MrkA.

B1: Kp16 (antibody, V domains shown)
VH: QVQLQQSGAEVKKPGASVKVSCKASGYALTTYYMHWVRQAPGQGLQWMGMINPSSGSTIYAQPFRGRVTLTRDTSSGTVFMDLSSLTSEDTAIYYCARGNYGSSFGYWGKGTMVTVSS
VL: not shown
Take B1: in assay [1], the “EC50 (read off the curve)” value was approximately 0.08 µg/mL.

B2: anti-MrkA clone 4 (IgG1) (antibody, V domains shown)
VH: QLQLQESGPGLVKPSGTLSLTCAVSGDSIDNANWWSWVRQTPGKGLEWIGEIYHSGTTYYNPSLKSRVTISIDNSKNQFSLALTSVTAADTAVYYCARDRDITSRGTFDVWGRGTMVTVSS
VL: DIQMTQSPSTLSASIGDRVTITCRASEGIYHWLAWYQQKPGKAPKLLIYKASSLASGAPSRFSGSGSGTDFTLTISSLQPDDFATYYCQQYSNYPLTFGGGTKLEIK
notes: also called St2_C4; IgG clone 4
As for B2, in assay [2], the Kd came out at 3.61 nM, the koff amounted to 0.000146 s⁻¹ and the kon is 40600 M⁻¹ s⁻¹. Moreover, the “EC50 (read off the curve)” value in assay [3] is approximately 0.1 µg/mL. Besides, in assay [4], the “EC50 (read off the curve)” value is approximately 0.01 µg/mL.

B3: Kp3 (antibody, IgG1, V domains shown)
VH: QVQLQESGPGLVKPSETLSLTCTVSGGSMNSNSNTYYWGWIRQPPGKGLEWIGTIHSSGRTYYNPSLKSRVTISVDMSKNQFSLNLTSATAADTAVYYCARDLSGASLAPRRPFNYYYYNMDVWGRGTLVTVSS
VL: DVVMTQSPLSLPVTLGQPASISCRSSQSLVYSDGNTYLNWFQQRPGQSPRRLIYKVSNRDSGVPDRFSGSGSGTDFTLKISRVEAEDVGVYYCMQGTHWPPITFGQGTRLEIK
notes: constant regions are not; also called anti-MrkA mAb Kp3; MAb Kp3
As to B3, the “EC50 (read off the curve)” value in assay [1] was approximately 0.08 µg/mL; in assay [3] it was approximately 0.01 µg/mL; in assay [4], approximately 0.01 µg/mL. Besides, the Kd in assay [2] came out at 0.15 nM. In addition, in assay [2], the koff stood at 1.2e-05 s⁻¹. Besides, the kon in assay [2] is 76000 M⁻¹ s⁻¹. Besides, the binding result in assay [5] and in assay [6] was “no binding” throughout.

B4: anti-MrkA clone 6 (IgG1) (antibody, V domains shown)
VH: QVQLVQSGAEVRKPGASVTLSCRTSGYTFTSYAVHWVRQAPGQGLEWMGGVNGGNGNTRFSQKFQDRLMIVRDRSANTASMELRSLTSEDTAVYYCARADDCSGVGCHPWFDPWGQGTLVTVSS
VL: SVILTQPPSVSVSPGQTANITCSGDKLGDKYTSWYLQKPGQSPVLLIFQDTKRPSDIPERFSGSNSGNTATLTISGTQAVDEADYYCQAWDSDSGTATFGGGTKLTVL
notes: also called St4_C6; IgG clone 6
As to B4, in assay [2], the Kd was found to be 8.8 nM, the koff was 0.0002 s⁻¹ and the kon was 22000 M⁻¹ s⁻¹. The “EC50 (read off the curve)” value in assay [3] was approximately 0.01 µg/mL. The “EC50 (read off the curve)” value in assay [4] is approximately 0.01 µg/mL.

B5: Clone 1 Fab (Fab, V domains shown)
VH: QVQLVQSGAEVRKPGASVTVFCRTSGYIFTSYAVHWVRQAPGQGLEWMGGINGGNGNTRISQRFQDRLMITRDRSANTASMELRSLTSEDTAIYYCARADDCSGVGCHPWFDPWGRGTLVTVSS
VL: QSVLTQPPSVSVSPGHTASITCSGDKLGDKYVSWYQQKSGQSPVLVMYKDTKRPSGIPERFSGSNSGNTATLAISGTQAVDEADYFCQAWDRSIMIFGGGTKVTVL
notes: also called Clone 1 (Fab format)
In assay [7], B5 had a Kd of 2.76 nM, a koff of 0.00034 s⁻¹ and a kon of 150000 M⁻¹ s⁻¹.

B6: anti-MrkA clone 1 (IgG1) (antibody, V domains shown)
VH: QVQLVQSGAEVRKPGASVTVFCRTSGYIFTSYAVHWVRQAPGQGLEWMGGINGGNGNTRISQRFQDRLMITRDRSANTASMELRSLTSEDTAIYYCARADDCSGVGCHPWFDPWGRGTLVTVSS
VL: QSVLTQPPSVSVSPGHTASITCSGDKLGDKYVSWYQQKSGQSPVLVMYKDTKRPSGIPERFSGSNSGNTATLAISGTQAVDEADYFCQAWDRSIMIFGGGTKVTVL
notes: also called St1_C1; IgG clone 1
On to B6, for which, in assay [2], the Kd is 3.25 nM, the koff turned out to be 0.00017 s⁻¹ and the kon is 53000 M⁻¹ s⁻¹. In assay [3], the “EC50 (read off the curve)” value is approximately 0.01 µg/mL. Besides, the “EC50 (read off the curve)” value in assay [4] was approximately 0.01 µg/mL.

B7: anti-MrkA clone 5 (IgG1) (antibody, V domains shown)
VH: QVQLVQSGAEVKKPGASLKVSCKASGYTFTAYYMHWVRQAPGHGLEWMGWINPSSGGTNSAQKFQGRVTMTRDTSINTAYMELSRLTSDDTAVYYCARGTIGAAGNYWGQGTLVTVSS
VL: QSVLTQPPSASGTPGQRVTISCSGSRPNIGGNTVNWYQQLPGAAPKLLIYSNSQRPSGVPDRFSGSKYGTSASLAISGLQSDDEADYYCAAWDDSLTGPVFGGGTKLTIL
notes: also called St3_C5; IgG clone 5
With B7, in assay [2], the Kd is 3.54 nM, the koff is 9.2e-05 s⁻¹ and the kon was found to be 26000 M⁻¹ s⁻¹. Besides, the “EC50 (read off the curve)” value in assay [3] was approximately 0.2 µg/mL. Moreover, in assay [4], the “EC50 (read off the curve)” value is approximately 0.01 µg/mL.

B8: Clone 5 Fab (Fab, V domains shown)
VH: QVQLVQSGAEVKKPGASLKVSCKASGYTFTAYYMHWVRQAPGHGLEWMGWINPSSGGTNSAQKFQGRVTMTRDTSINTAYMELSRLTSDDTAVYYCARGTIGAAGNYWGQGTLVTVSS
VL: QSVLTQPPSASGTPGQRVTISCSGSRPNIGGNTVNWYQQLPGAAPKLLIYSNSQRPSGVPDRFSGSKYGTSASLAISGLQSDDEADYYCAAWDDSLTGPVFGGGTKLTIL
notes: also called Clone 5 (Fab format)
Consider B8, for which, in assay [7], the Kd worked out at 1520 nM, the koff stood at 0.0782 s⁻¹ and the kon turned out to be 50000 M⁻¹ s⁻¹.
